According to patent US20030100021A1:
Blank lines part the entries; values can stand above or below the substance they belong to.

What was measured:
Experiment in all cases: cell-based or functional assay
[1] = biological target: βc/LepR-F3-Smad3 + GM-CSFRα/LepR-F3-ALK4CA heteromeric bait receptor (Example 8, transfection b) (mouse; human) (UniProt P32927)
[2] = biological target: βc/LepR-F3-ALK4CA + GM-CSFRα/LepR-F3-Smad3 heteromeric bait receptor (Example 8, transfection a) (mouse; human) (UniProt P32927)
[3] = biological target: LepR-IRS1 bait receptor (pMET7 LepR-IRS1) (mouse; human) (UniProt P48356)
[4] = biological target: LepR Y985/1077F mutant (pMET7 LepRY985/1077F) (mouse) (UniProt P48356)
[5] = biological target: EpoR/LepR-F3-EpoR chimeric bait receptor (pSEL1-EpoR) (human; mouse) (UniProt P19235)
[6] = biological target: EpoR/LepR-F3-p53 chimeric bait receptor (pSEL1-p53) (human; mouse) (UniProt P19235)
Chain of EpoR/LepR-F3-p53 chimeric bait receptor (pSEL1-p53) (human; mouse) (P19235 other isoform, or with tags, fused parts or gaps mutant limits assumed, form in doubt): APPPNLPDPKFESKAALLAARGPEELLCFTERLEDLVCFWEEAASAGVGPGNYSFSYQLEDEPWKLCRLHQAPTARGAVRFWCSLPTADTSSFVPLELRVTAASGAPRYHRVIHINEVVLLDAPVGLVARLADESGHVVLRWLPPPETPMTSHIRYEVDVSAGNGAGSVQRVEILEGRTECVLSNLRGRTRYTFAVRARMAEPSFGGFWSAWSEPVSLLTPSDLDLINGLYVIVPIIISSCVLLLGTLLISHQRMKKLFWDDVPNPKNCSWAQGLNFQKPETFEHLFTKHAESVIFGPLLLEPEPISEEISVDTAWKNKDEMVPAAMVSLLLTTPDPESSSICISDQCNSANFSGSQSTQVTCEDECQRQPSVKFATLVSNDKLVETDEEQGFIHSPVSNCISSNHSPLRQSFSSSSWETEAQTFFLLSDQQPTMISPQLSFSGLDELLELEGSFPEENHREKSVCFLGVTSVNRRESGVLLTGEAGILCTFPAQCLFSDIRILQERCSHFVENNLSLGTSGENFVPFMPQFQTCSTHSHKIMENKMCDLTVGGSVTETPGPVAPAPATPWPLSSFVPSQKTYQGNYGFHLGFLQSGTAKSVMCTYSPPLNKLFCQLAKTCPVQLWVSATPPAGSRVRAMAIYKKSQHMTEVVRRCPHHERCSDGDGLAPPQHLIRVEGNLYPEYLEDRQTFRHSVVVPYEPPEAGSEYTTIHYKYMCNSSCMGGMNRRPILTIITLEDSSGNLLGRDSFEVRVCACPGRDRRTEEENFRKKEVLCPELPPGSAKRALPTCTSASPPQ

Chain of LepR Y985/1077F mutant (pMET7 LepRY985/1077F) (mouse) (P48356 other isoform, or with tags, fused parts or gaps mutant): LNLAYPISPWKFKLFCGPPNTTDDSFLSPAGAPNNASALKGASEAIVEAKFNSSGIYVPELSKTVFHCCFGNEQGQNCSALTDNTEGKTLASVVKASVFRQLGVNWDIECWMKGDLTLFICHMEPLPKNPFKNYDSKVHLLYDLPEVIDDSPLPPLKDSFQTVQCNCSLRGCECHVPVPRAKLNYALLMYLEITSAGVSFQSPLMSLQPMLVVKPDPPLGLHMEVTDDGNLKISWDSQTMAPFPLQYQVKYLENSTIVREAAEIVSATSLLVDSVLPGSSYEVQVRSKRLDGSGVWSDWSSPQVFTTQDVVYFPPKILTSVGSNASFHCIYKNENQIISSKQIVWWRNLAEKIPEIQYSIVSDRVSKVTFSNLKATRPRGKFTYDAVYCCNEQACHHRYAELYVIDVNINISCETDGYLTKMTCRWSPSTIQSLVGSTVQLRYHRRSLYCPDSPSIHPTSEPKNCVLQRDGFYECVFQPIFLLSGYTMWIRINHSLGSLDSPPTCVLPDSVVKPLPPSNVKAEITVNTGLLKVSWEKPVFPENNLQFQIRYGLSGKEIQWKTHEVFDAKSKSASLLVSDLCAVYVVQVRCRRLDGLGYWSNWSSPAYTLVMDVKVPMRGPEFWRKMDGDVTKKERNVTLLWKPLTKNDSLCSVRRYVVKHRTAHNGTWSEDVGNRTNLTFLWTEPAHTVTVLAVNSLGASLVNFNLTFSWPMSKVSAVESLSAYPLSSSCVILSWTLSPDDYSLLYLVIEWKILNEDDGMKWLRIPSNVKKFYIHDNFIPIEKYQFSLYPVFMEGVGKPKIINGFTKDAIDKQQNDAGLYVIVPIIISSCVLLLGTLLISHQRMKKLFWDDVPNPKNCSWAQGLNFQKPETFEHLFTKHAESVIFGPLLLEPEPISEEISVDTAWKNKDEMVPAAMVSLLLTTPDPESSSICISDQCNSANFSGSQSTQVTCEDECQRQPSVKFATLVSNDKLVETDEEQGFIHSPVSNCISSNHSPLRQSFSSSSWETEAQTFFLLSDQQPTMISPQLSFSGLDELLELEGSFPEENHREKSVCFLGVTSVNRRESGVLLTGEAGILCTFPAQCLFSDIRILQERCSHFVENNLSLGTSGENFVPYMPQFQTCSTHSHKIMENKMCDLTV
Chain of EpoR/LepR-F3-EpoR chimeric bait receptor (pSEL1-EpoR) (human; mouse) (P19235 other isoform, or with tags, fused parts or gaps mutant limits assumed, form in doubt): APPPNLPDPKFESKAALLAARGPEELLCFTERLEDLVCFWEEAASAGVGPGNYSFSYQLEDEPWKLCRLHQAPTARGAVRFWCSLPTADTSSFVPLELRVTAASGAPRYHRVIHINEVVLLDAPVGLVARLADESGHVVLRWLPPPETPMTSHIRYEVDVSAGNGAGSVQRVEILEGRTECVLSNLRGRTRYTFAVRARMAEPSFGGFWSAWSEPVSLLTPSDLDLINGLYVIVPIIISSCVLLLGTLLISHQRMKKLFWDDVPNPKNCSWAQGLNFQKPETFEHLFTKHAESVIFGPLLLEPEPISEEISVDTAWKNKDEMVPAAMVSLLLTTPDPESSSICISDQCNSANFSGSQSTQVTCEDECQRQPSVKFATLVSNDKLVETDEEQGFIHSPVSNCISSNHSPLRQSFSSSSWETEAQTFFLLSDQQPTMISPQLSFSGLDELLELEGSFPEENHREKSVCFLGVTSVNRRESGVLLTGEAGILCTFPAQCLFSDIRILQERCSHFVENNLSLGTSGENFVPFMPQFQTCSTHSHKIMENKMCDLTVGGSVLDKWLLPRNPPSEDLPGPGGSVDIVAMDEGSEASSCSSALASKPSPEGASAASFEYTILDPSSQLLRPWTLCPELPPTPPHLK
Chain of flag-gp130-SVT prey (pMG1-SVT; pMET7-flag-gp130-SVT) (P40189 761-918, tags or fused parts left off): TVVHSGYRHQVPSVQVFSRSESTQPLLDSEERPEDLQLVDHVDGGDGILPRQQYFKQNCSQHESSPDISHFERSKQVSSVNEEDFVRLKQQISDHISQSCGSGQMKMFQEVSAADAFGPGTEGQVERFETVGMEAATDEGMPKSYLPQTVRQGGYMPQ

luciferase activity (rPAP1 promoter), fold induction, GM-CSF [1]: 9 fold
luciferase activity (rPAP1 promoter), fold induction, GM-CSF co-stimulated with forskolin [1]: 71 fold
luciferase activity (rPAP1 promoter), fold induction, GM-CSF [2]: 3 fold
luciferase activity (rPAP1 promoter), fold induction, GM-CSF co-stimulated with forskolin [2]: 37 fold
Substance: pMG2-Smad4 prey (flag-gp130 with 6 STAT recruitment sites fused to human Smad4) (from UniProt Q13485 4-552)

luciferase activity (rPAP1 promoter), fold induction, leptin [3]: 5.2 fold
luciferase activity (rPAP1 promoter), fold induction, leptin co-stimulated with forskolin [3]: 12 fold
Substance: flag-gp130-VavS prey (pMG1-VavS) (from UniProt P40189 761-918; P15498 259-789)

luciferase activity (rPAP1-luci reporter), fold induction, leptin [4]: 33.2 fold
luciferase activity (rPAP1-luci reporter), fold induction, leptin co-stimulated with forskolin [4]: 37.6 fold
Substance: recombinant human leptin (R&D systems) (from UniProt P41159 22-167) (ligand)

luciferase activity (rPAP1-luci reporter), fold induction, erythropoietin [5]: 6.2 fold
luciferase activity (rPAP1-luci reporter), fold induction, erythropoietin plus forskolin [5]: 10.5 fold
Substance: flag-gp130-CIS prey (pMG1-CIS) (from UniProt P40189 761-918; Q62225 2-257)

luciferase activity (rPAP1 promoter), fold induction, leptin co-stimulated with forskolin [3]: 2.5 fold
Substance: flag-gp130-GRB2S prey (pMG1-GRB2S) (from UniProt P40189 761-918; P62993 60-158)

Substance: flag-gp130-SVT prey (pMG1-SVT; pMET7-flag-gp130-SVT) (from UniProt P40189 761-918; P03070 261-708)
luciferase activity (rPAP1-luci reporter), fold induction, erythropoietin [6]: 9.4 fold
luciferase activity (rPAP1-luci reporter), fold induction, erythropoietin plus forskolin [6]: 14.6 fold
